This test has as its target mAb04-MICA antibody fusion protein (human) (UniProt Q29983). Nature of the test: SPR; Biacore X100; mAb04-MICA captured on a CM5 chip by anti-human IgG (Fc) antibody; soluble NKG2D injected at 7.8125-250 nM; HBS-EP pH 7.4; bivalent analyte model (the results say 2:1 binding model).
Sequence of UniProt Q29983 (Q29983 whole entry, looked up, the tested form may be a part): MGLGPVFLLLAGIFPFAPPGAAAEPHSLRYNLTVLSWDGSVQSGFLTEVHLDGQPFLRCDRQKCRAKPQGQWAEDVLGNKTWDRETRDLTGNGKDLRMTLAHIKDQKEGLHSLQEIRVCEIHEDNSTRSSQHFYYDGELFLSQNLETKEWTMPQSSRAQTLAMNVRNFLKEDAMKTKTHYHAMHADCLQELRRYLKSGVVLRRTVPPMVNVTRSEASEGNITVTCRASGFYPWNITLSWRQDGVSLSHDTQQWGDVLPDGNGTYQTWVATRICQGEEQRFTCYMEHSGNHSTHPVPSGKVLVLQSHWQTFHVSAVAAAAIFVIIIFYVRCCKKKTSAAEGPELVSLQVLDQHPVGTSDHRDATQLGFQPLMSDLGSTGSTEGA

In the case of “soluble recombinant NKG2D (from UniProt P26718 1-216) (receptor)”, the Kd is 710 nM, the koff worked out at 188 s⁻¹ and the kon amounted to 2.65e+08 M⁻¹ s⁻¹.

These data come from paper PMC4941327.
